Data from US20230293685A1.

Legend:
[1] = biological target: PD-1 (programmed cell death 1; CD279) on tumor infiltrating lymphocytes (human) (UniProt Q15116); assay: positive magnetic selection of TIL with M1H4-coupled microbeads
[2] = biological target: PD-1 (programmed cell death 1; CD279) on tumor infiltrating lymphocytes (human) (UniProt Q15116); assay: flow cytometry, tumour digest M1156 stained with anti-PD-1 clone EH12.2H7; percent of CD3+ cells
[3] = biological target: PD-1 (programmed cell death 1; CD279) on tumor infiltrating lymphocytes (human) (UniProt Q15116); assay: flow cytometry, tumour digest H3046 stained with anti-PD-1 clone EH12.2H7; percent of CD3+ cells
[4] = biological target: PD-1 (programmed cell death 1; CD279) on tumor infiltrating lymphocytes (human) (UniProt Q15116); assay: flow cytometry re-analysis of cells sorted on EH12.2H7 staining, tumour M1156
[5] = biological target: PD-1 (programmed cell death 1; CD279) on tumor infiltrating lymphocytes (human) (UniProt Q15116); assay: flow cytometry re-analysis of cells sorted on EH12.2H7 staining, tumour OV8074
[6] = biological target: PD-1 (programmed cell death 1; CD279) on tumor infiltrating lymphocytes (human) (UniProt Q15116); assay: flow cytometry, tumour digest OV8074 stained with anti-PD-1 clone EH12.2H7; percent of CD3+ cells
[7] = biological target: PD-1 (programmed cell death 1; CD279) on tumor infiltrating lymphocytes (human) (UniProt Q15116); assay: positive magnetic selection of REP TIL with EH12.2H7-coupled microbeads; sorted cells stained with secondary mIgG1-PE and aCD3 FITC

Sequence of UniProt Q15116 (Q15116 25-288): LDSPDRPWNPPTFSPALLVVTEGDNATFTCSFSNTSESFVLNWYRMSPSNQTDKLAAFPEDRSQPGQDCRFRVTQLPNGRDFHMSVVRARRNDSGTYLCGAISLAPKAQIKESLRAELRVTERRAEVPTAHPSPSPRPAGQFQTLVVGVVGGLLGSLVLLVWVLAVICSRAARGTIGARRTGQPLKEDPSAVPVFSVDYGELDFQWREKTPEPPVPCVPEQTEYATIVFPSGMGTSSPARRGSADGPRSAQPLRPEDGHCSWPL

Molecule | purity of PD-1+ TIL after magnetic selection [1] [%] | Pre-sort % PD-1+ (of CD3+) [2] [%] | Pre-sort % PD-1+ (of CD3+) [3] [%] | Post-sort Purity % PD-1+ (of CD3+) [4] [%] | Post-sort Purity % PD-1+ (of CD3+) [5] [%] | Pre-sort % PD-1+ (of CD3+) [6] [%] | purity of PD-1+ TIL after magnetic selection [7] [%]
CD279 (PD-1) Monoclonal Antibody (Clone-MIH4), eBioscience | > 85 | – | – | – | – | – | –
anti-PD-1 antibody clone EH12.2H7 (antibody, from another filing, IgG1, V domains shown) VH: QVQLQQSGAELAKPGASVQMSCKASGYSFTSSWIHWVKQRPGQGLEWIGYIYPSTGFTEYNQKFKDKATLTADKSSSTAYMQLSSLTSEDSAVYYCARWRDSSGYHAMDYWGQGTSVTVSS VL: DIVLTQSPASLTVSLGQRATISCRASQSVSTSGYSYMHWYQQKPGQPPKLLIKFGSNLESGIPARFSGSGSGTDFTLNIHPVEEEDTATYYCQHSWEIPYTFGGGTKLEIK | – | 93 | 13 | 100 | 98 | 70 | > 85
